Two substances from US20250346673A1 can be followed below.

Assay [1] deals with cynomolgus BDCA2 (cynomolgus monkey). Kind of assay: FACS on 293F-cynoBDCA2 cells; EC50 table under the plot, unit from the x axis (nM); fit of a flat control curve [continued) e.].
Assay [2] concerns the target human BDCA2 (human) (UniProt Q8WTT0). Kind of assay: FACS on CHOK1-hBDCA2 cells; EC50 table under the plot, unit from the x axis (nM); fit of a flat control curve.
Assay [3] shares this target. Put plainly: FACS on CHOK1-hBDCA2 cells; EC50 table under the plot, unit from the x axis (nM); fit of a flat control curve [continued) e.].

Chain of cynomolgus BDCA2 (cynomolgus monkey) (chain, as listed by the source): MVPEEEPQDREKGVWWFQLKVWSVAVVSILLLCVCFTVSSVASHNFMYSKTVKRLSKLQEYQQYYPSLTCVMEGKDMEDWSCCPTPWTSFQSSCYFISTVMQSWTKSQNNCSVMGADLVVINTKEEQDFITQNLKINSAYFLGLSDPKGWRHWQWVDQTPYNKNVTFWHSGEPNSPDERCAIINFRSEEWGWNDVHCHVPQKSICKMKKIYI
Chain of human BDCA2 (human) (Q8WTT0 whole entry): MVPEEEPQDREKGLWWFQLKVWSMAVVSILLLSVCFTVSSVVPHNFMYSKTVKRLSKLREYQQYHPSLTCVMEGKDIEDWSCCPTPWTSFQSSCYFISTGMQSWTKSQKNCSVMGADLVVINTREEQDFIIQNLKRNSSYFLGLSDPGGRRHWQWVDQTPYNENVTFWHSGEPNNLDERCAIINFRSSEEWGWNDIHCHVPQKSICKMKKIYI

As for hIgG1 (antibody), the 50% effective concentration (EC50) in assay [1] was determined as 21.8 nM; in the assay with human BDCA2 (human) [2] it was 61.3 nM.

Take mIgG1 (antibody): the EC50 in the assay with human BDCA2 (human) [3] was found to be 176000 nM; in assay [1], 20.6 nM.

One may read the EC50 as the concentration at which the effect is half-maximal. Lower therefore signals an effect from little substance.
